# In patent US20060079453A1:
# “And” between values parts separate entries of the source, which are not always exact repeats. Equal values may be shown once.
# B1: … (peptide)
# peptide: EYRHYNYSLY
# modifications: not checked
# B2: … (peptide)
# peptide: RQAKQHTCY
# modifications: not checked
# B3: … (peptide)
# peptide: TQDGPGPGY
# modifications: not checked
# B4: … (peptide)
# peptide: PTLKEYVLDLY
# modifications: not checked
# B5: KYTSFPWL (peptide)
# peptide: KYTSFPWL
# modifications: not checked
# B6: … (peptide)
# peptide: TLEKITNTELY
# modifications: not checked
# B7: … (peptide)
# peptide: YTGPGPGVY
# modifications: not checked
# B8: … (peptide)
# peptide: AYGPGPGKF
# modifications: not checked
# B9: FTDLRIVY (peptide)
# peptide: FTDLRIVY
# modifications: not checked
# B10: … (peptide)
# peptide: EVDGPGPGY
# modifications: not checked
# B11: … (peptide)
# peptide: TQDLVQEKY
# modifications: not checked
# B12: … (peptide)
# peptide: RSDSVGPGPGY
# modifications: not checked
# B13: … (peptide)
# peptide: TQGPGPGKY
# modifications: not checked
# B14: … (peptide)
# peptide: RSDGPGPGVLY
# modifications: not checked
# B15: … (peptide)
# peptide: RWGLLLALL
# modifications: not checked
# B16: … (peptide)
# peptide: TLEKLTNTGLY
# modifications: not checked
# B17: … (peptide)
# peptide: WFHISCLTF
# modifications: not checked
# B18: … (peptide)
# peptide: RVLPPNWKY
# modifications: not checked
# B19: … (peptide)
# peptide: IYGPGPGLIF
# modifications: not checked
# B20: FTDLTIVY (peptide)
# peptide: FTDLTIVY
# modifications: not checked
# B21: … (peptide)
# peptide: AYSSWMYSY
# modifications: not checked
# B22: … (peptide)
# peptide: RISGVDRYY
# modifications: not checked
# B23: IMVLSFLF (peptide)
# peptide: IMVLSFLF
# modifications: not checked
# B24: … (peptide)
# peptide: RQDILDLWVY
# modifications: not checked
# B25: … (peptide)
# peptide: ISEYRHYQY
# modifications: not checked
# B26: … (peptide)
# peptide: EVGPGPGLY
# modifications: not checked
# B27: … (peptide)
# peptide: ATSNYYIVTY
# modifications: not checked
# B28: … (peptide)
# peptide: YTAGPGPGY
# modifications: not checked
# B29: … (peptide)
# peptide: RFLSKISEY
# modifications: not checked
# B30: … (peptide)
# peptide: KTLYQSNPY
# modifications: not checked
# B31: … (peptide)
# peptide: AADAAAAKY
# modifications: not checked
# B32: … (peptide)
# peptide: ALFQEYQCY
# modifications: not checked
# Molecular target: HLA-A*2902 (human)
# Experiment: competition, purified HLA
# Conditions: not given
row,Binder,IC50 [µM]
1,B1,0.956
2,B2,155
3,B3,37.1
4,B4,0.805
5,B5,> 172
6,B6,8.4
7,B7,2.02
8,B8,44.9
9,B9,0.813
10,B10,25.8
11,B11,33.3
12,B12,31.2
13,B13,36.7
14,B14,13.2
15,B15,61.3

# Same assay, conditions: remark: other sources report otherwise
row,Binder,IC50 [µM]
1,B16,0.991
2,B17,0.095

# Molecular target: HLA-A*3002 (human)
# Experiment: competition, purified HLA
# Conditions: not given
row,Binder,IC50 [µM]
1,B18,0.003
2,B3,0.541
3,B19,6.84
4,B20,39
5,B7,0.0064
6,B21,0.0049
7,B9,8.06
8,B10,5.77
9,B22,0.003
10,B23,30
11,B24,0.095
12,B15,0.3

# Same assay, conditions: remark: other sources report otherwise
row,Binder,IC50 [µM]
1,B17,75.1

# Molecular target: HLA-A*0101 (human)
# Experiment: competition, purified HLA
# Conditions: not given
row,Binder,IC50
1,B25,0.04 µM
2,B1,111 µM
3,B2,> 135 µM
4,B26,0.05 µM
5,B20,0.016 µM and 0.034 µM
6,B27,0.428 µM
7,B28,0.007 µM
8,B29,> 40.3 µM
9,B9,0.026 µM
10,B24,9 µM
11,B30,6.91 µM
12,B31,0.02 µM

# Same assay, conditions: remark: other sources report otherwise
row,Binder,IC50 [µM]
1,B16,0.077
2,B32,> 42
3,B17,85.3
